Ends that are not written are not given here.
Experiments:
protein kinase C (PKC) = assay: Inhibition of protein kinase C activity
papain = biological target: T1, papain (Carica papaya, UniProt P00784); conditions: at 160 uM; cited from earlier work
T1 sequence (P00784 134-345): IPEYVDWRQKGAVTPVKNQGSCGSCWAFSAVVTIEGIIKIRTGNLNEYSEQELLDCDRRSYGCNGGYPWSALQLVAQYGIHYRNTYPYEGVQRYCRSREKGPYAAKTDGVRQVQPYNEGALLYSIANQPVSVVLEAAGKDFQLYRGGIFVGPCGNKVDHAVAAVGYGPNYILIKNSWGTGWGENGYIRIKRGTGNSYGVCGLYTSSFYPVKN

[1] = tested on: metastatic human melanoma 1205 Lu cells; assay: MTT growth assay of human 1205 Lu melanoma cells with peptide; type: cell-based; conditions: peptide 10 uM, 1 time addition or day 1-3 addition; identical conditions as for B16
Procedure: B16F10 melanoma cells were obtained from the ATCC. Human 1205 Lu metastatic melanoma cell line was received from Robert Baer, PhD, a collaborator with our laboratory here at ATSU. Growth was in RPMI 1640 media supplemented with FBS (10%) and penicillin, streptomycin, amphotericin antibiotics (1%) (Sigma). Cells were maintained in a humidified incubator at 37° C. with 5% CO2.
The growth of B16F10 melanoma cells by the MTT method was performed with the addition of 10 uM peptide to the melanoma cells in standard 96-well culture plates. Cells were cultured in media for 4 days after seeding at about 1000 cells per well. After growth the culture media was replaced with media containing 0.5 mg/ml MTT solution and incubated for 4 hours at 37° C. The MTT solution was then removed and the residual dye was solubilized in 100 ul isopropanol for 15 minutes before reading the O.D. at 570 nm.

B16 melanoma cells = assay: Boyden chamber-type migration assay, Cystatin C overexpressing clone cc6 versus control plasmid clone pc2; type: cell-based, murine; conditions: B16 melanoma cells overexpressing Cystatin C (clone cc6) compared to control plasmid transfected (pc2); bFGF chemotactic factor
From the text: (§1) The Cystatin C cDNA was amplified from B16F10 melanoma cells by PCR amplification of reverse transcribed total RNA isolated from B16 F10 melanoma cells in culture. The primers used for the amplification were derived from 5′ and 3′ sequences for murine Cystatin C from Solem et al. (18). The PCR product corresponding to the expected size was agarose gel purified and ligated into pcDNA3 expression plasmid for further analysis. The plasmid was sent to for sequence analysis at the University of Chicago and the sequence analysis produced a cDNA sequence which exactly matched murine Cystatin C cDNA sequence (19). Transfection of the cystatin plasmid or pcDNA3 plasmid was carried out with Lipofectamine™ reagent (Invitrogen) by the manufacturer's instructions. Isolated cell colonies, which had grown following Geneticin® (1 mg/ml) selection were trypsized in glass cloning rings and transferred to multi-well tissue culture dishes for expansion in culture.
Cells (2×104) are placed into the top well of the Boyden chamber in cell culture media while media plus bFGF chemotactic factor (25 ng/ml) is placed into the lower well of the chamber. Quantitation is through direct microscopic counting of 10-20 fields of crystal violet stained cells per filter.

[2] = tested on: MARCKS phosphorylation in B16F10 melanoma cells; assay: MARCKS phosphorylation by western blot with phospho-antibody probing; type: cell-based; conditions: murine Cystatin C overexpressing clone cc6 B16F10 melanoma cells vs control
From the text: as §1
For analysis of B16 melanoma proteins, melanoma cell cultures were lysed with lysis buffer and extracts were centrifuged at 10K rpm for 5 minutes. Protein was measured by Lowry assay and 40 ug of protein was loaded per lane on 10% SDS-PAGE gels for analysis. After electrophoresis, the proteins were transferred to PVDF membranes which were first blocked with 2% BSA in TBST buffer. […]

YRKQLVAGVNYFFDVH (listed as Mus musculus) [therapeutic peptide, Therapeutic peptide derived from mouse Cystatin C with the first A substituted by Y]
inhibition of protein kinase C (PKC) activity (protein kinase C (PKC)): inhibits | inhibition of papain (papain): 20%

RQIKIWFPNRRMKWKKAYRKQLVAGVNYFFDVH [penetratin linked to active peptide]
growth of human 1205 Lu melanoma cell line [1]: significantly inhibits

B1: Cystatin C: natural cysteine protease inhibitor; murine Cystatin C cDNA overexpressed from pcDNA3 plasmid in B16F10 melanoma cells (clone cc6) (protein, UniProt P21460 21-140, looked up)
Cystatin-C: ATPKQGPRMLGAPEEADANEEGVRRALDFAVSEYNKGSNDAYHSRAIQVVRARKQLVAGVNYFLDVEMGRTTCTKSQTNLTDCPFHDQPHLMRKALCSFQIYSVPWKGTHSLTKFSCKNA
inhibition of migration (B16 melanoma cells): ~80% | average level of MARCKS phosphorylation, fold less [2]: 3-5 fold
